The values below come from patent US20200148777A1 (GAMAMABS PHARMA, published 2020).

Assay [1] concerns the target T1, MISRII (AMHRII), immobilised on CM5 sensor chip (UniProt Q16671 18-144, limits assumed).
T1 construct: also called MSRII; immobilized receptor
T1 sequence (looked up): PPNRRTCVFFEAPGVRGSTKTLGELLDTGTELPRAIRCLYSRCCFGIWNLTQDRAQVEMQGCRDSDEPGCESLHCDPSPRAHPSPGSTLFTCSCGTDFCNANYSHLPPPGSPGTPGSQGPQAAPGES
The assay can be described thus: SPR, MISRII immobilised on CM5 chip, IgG injected, Langmuir 1:1 fit (affinity and avidity). The procedure:
(§1) SPR analyses were performed on a Bia3000 or T200 apparatus at 25° C. in HBS-EP (GE Healthcare). For affinity measurements, MISRII was covalently immobilized (1000 RU) on CM5 sensor chip using EDC/NHS activation according to the manufacturer's instructions (GE Healthcare). Different concentrations (0.5-128 nM) of 12G4 or 3C23K were injected on immobilized receptor during 180 seconds. After 400 seconds of dissociation in running buffer, the sensor chip was regenerated using Gly-HCl pH 1.7. The KD values, taking into account affinity and avidity, were calculated using a Langmuir 1:1 fitting model (BiaEvaluation3.2, GE Healthcare). Antibody-FcγR measurements were performed by single-cycle titration at 100 μl/min on FcγR (Sigma) captured on anti-His (R&D Systems) covalently immobilized at 4000-5000 RU level. The gamma receptor was injected at 20 nM during 60 seconds and five increasing antibody concentrations were injected (injection time=60 seconds). […] Kinetic parameters were evaluated from the sensorgrams using a heterogeneous Ligand or steady-state fitting models on the T200 evaluation software 3.0 (GE healthcare). […]
To better define the binding characteristics, clone 3C23K was reformatted as an IgG1 antibody, produced in YB2/0 cells and analyzed by surface plasmon resonance (SPR). […]
In general terms: In SPR one partner is held on a chip, and binding of the other changes the refractive index at the surface.

Assay [2] has as its target T2, human Fcγ RIIIa/CD16a (human, UniProt P08637 17-208).
T2 construct: Captured through anti-His antibody, so a His tag is implied but not described; also called hFcγRIIIa
In words: SPR, single-cycle titration, FcγR captured on anti-His; 3C23K from YB2/0, low fucose (33.0% fucosylated); lower end of the range 1-12 nM. On the procedure: as §1
(§2) The percentages of fucosylated, galactosylated and bisecting GlcNAc isoforms were 33.0%, 57.2% and 1.8% for 3C23K and 94.6%, 54.4% and 2.0%, for 3C23K-CHO, respectively. The effect of these glycosylation differences on the binding to FcγRs was analyzed by SPR.

Assay [3] concerns the target T3, human Fcγ RI/CD64 (human, UniProt P12314 16-288).
T3 construct: Captured through anti-His antibody, so a His tag is implied but not described; also called hFcγRI
The assay can be described thus: SPR T200, single-cycle titration, receptor captured on anti-His; two state reaction model. On the procedure: (§3) Anti-histidine antibodies (R&D Systems) were immobilized on a T200 apparatus at 25° C. in HBS-EP at 10 μl/min flow rate on a CM5 sensor chip using EDC/NHS activation, according to the manufacturer's instructions (GE Healthcare). They were covalently immobilized at the 6900RU level on the flowcell Fc2 and a control reference surface (flowcell Fc1) was prepared using the same chemical treatment but without anti-His antibodies.
(§4) All kinetic measurements in Fc1 and Fc2 were performed by single-cycle titration on a T200 apparatus at 25° C. in HBS-EP at 100 μl/min. Each human gamma receptor (R&D Systems) was captured on immobilized anti-His antibodies at 20 nM during 60 s. Five increasing concentrations of antibody were injected (injection time=120 s). After a dissociation step of 600 s in running buffer, sensor surfaces were regenerated using 5 μl of glycine-HCl pH1.7. All the sensorgrams were corrected by subtracting the low signal from the control reference surface and buffer blank injections. Kinetic parameters were evaluated from the sensorgrams using a heterogeneous ligand or two states models from the T200 evaluation software.
(§5) The results of the measure of the affinity constants (Kd) of the hypo-fucosylated anti-AMHRII 3C23K antibody for the human Fc receptors are depicted in Table 4 below.

The target of assay [4] is T2, human Fcγ RIIIa/CD16a. The assay can be described thus: SPR, single-cycle titration, FcγR captured on anti-His; 3C23K from YB2/0, low fucose (33.0% fucosylated); upper end of the range 1-12 nM. The procedure: as §1, §2
The target of assay [5] is T2, human Fcγ RIIIa/CD16a. The assay can be described thus: SPR (Biacore); description's upper bound for hypofucosylated 3C23K (YB2/0).
Assay [6] deals with T4, human Fcγ RIIIb/hCD16b (human, UniProt O75015 17-200).
T4 construct: Captured through anti-His antibody, so a His tag is implied but not described; also called hFcγRIIIb
In words: SPR, single-cycle titration, FcγR captured on anti-His; 3C23K from YB2/0, low fucose (33.0% fucosylated). On the procedure: as §1, §2

The next assay has as its target T5, human Fcγ RII/CD32a (human, UniProt P12318 36-218).
T5 construct: Captured through anti-His antibody, so a His tag is implied but not described; also called hFcγRIIa
T5 sequence (looked up): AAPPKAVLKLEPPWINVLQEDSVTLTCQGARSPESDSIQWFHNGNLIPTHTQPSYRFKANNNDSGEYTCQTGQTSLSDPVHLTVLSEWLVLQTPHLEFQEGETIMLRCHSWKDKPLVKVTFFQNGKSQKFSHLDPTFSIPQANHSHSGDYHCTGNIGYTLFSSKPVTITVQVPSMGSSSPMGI
In words: SPR T200, single-cycle titration, receptor captured on anti-His; heterogeneous ligand model (footnote *). On the procedure: as §3, §4, §5

Assay [7] concerns the target T4, human Fcγ RIIIb/hCD16b. The description is as above. On the procedure:
as §3, §4, §5

Assay [8] addresses T3, human Fcγ RI/CD64. In words: SPR, FcγR captured on anti-His. On the procedure: as §1, §2
A further assay addresses T6, human Fcγ RIIbc/CD32bc (human, UniProt P31994 46-217).
T6 construct: treated here as one molecule; also called hFcγRIIb
T6 sequence (looked up): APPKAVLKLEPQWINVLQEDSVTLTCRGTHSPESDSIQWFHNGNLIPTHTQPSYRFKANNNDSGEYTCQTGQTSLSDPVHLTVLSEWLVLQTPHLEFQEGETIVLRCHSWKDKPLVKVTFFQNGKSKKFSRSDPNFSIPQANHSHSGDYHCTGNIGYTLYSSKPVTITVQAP
In words: SPR, FcγR captured on anti-His. On the procedure: as §1, §2

Assay [9] concerns the target T2, human Fcγ RIIIa/CD16a. The assay can be described thus: SPR, single-cycle titration, FcγR captured on anti-His; 3C23K-HEK293, expressed in HEK293 (comparator, not fucose-reduced); lower end of the range 31-164 nM. The procedure:
as §1, §2

Assay [10] has as its target T4, human Fcγ RIIIb/hCD16b. The assay can be described thus: SPR, single-cycle titration, FcγR captured on anti-His; 3C23K-HEK293, expressed in HEK293 (comparator, not fucose-reduced). On the procedure:
as §1, §2

Assay [11] concerns the target T2, human Fcγ RIIIa/CD16a. The assay can be described thus: SPR, single-cycle titration, FcγR captured on anti-His; 3C23K-HEK293, expressed in HEK293 (comparator, not fucose-reduced); upper end of the range 31-164 nM. The procedure:
as §1, §2

T4 sequence (O75015 17-200 limits assumed): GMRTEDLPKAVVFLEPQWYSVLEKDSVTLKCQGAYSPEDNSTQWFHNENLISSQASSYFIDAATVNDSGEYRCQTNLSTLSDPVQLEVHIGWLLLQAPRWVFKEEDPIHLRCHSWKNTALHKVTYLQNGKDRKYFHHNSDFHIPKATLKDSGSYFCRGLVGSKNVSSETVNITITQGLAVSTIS
T2 sequence (P08637 17-208 limits assumed): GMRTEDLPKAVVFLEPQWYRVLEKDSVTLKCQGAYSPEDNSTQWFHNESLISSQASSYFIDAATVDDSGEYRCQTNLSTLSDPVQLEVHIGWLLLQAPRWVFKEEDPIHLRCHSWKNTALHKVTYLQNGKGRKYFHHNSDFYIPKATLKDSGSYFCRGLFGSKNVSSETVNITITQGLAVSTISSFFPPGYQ
T3 sequence (P12314 16-288 limits assumed): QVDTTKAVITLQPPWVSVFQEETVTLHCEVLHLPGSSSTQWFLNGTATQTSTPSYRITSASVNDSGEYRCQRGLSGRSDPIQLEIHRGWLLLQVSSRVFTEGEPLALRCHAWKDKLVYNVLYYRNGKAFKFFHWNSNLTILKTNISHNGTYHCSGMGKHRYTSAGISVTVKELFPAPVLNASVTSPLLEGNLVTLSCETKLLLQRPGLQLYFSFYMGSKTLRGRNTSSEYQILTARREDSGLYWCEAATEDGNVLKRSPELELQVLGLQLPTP

B1: murine anti-MISRII monoclonal antibody 12G4 (antibody, V domains shown)
VH: QVQLQQSGPELVKPGASVRMSCKASGYTFTSYHIHWVKQRPGQGLEWIGWIYPGDDSTKYNEKFKGKTTLTADKSSSTAYMLLSSLTSEDSAIYFCTRGDRFAYWGQGTLVTVSA
VL: QIVLTQSPAIMSASLGEGITLTCSASSSVRYIHWYQQKSGTSPKLLIYSTSNLASGVPSRFSGSGSGTFHSLTISSVEAEDAADYYCLQWSSYPWTFGGGTKLEIK
B1 had a Kd in assay [1] of 0.79 nM.

B2: 3C23K humanised anti-AMHRII monoclonal antibody produced in YB2/0 cells (hypofucosylated, EMABling version) (antibody, human IgG1, kappa)
heavy: not shown
light: DIQMTQSPSTLSASVGDRVTITCRASSSVRYIAWYQQKPGKAPKLLTYPTSSLKSGVPSRFSGSGSGTEFTLTISSLQPDDFATYYCLQWSSYPWTFGGGTKVEIKRTVAAPSVFIFPPSDEQLKSGTASVVCLLNNFYPREAKVQWKVDNALQSGNSQESVTEQDSKDSTYSLSSTLTLSKADYEKHKVYACEVTHQGLSSPVTKSFNRGEC
modifications: N-glycan at ASN295 of the heavy chain, hypofucosylated (33.0% fucosylated isoforms for 3C23K from YB2/0)
notes: also called GM102; R18H2
For the molecule B2, the Kd in the assay with human Fcγ RIIIa/CD16a [2] is at least 1 nM; in the assay with human Fcγ RI/CD64 [3] it was 0.2 to 3.3 nM; with human Fcγ RIIIa/CD16a [4], at most 12 nM; with human Fcγ RIIIa/CD16a [5], below 50 nM; in assay [1], 0.055 nM; with human Fcγ RIIIb/hCD16b [6] it was 86 nM. In addition, the Kd with human Fcγ RII/CD32a is 120 nM; with human Fcγ RIIIb/hCD16b [7], 49 nM.

B3: 3C23K antibody expressed in HEK293 cells (antibody, human IgG1, kappa)
heavy: not shown
light: DIQMTQSPSTLSASVGDRVTITCRASSSVRYIAWYQQKPGKAPKLLTYPTSSLKSGVPSRFSGSGSGTEFTLTISSLQPDDFATYYCLQWSSYPWTFGGGTKVEIKRTVAAPSVFIFPPSDEQLKSGTASVVCLLNNFYPREAKVQWKVDNALQSGNSQESVTEQDSKDSTYSLSSTLTLSKADYEKHKVYACEVTHQGLSSPVTKSFNRGEC
notes: It differs from m1 only in glycosylation; also called 3C23K-HEK293
Take B3: the binding result with human Fcγ RI/CD64 [8] and with human Fcγ RIIbc/CD32bc was “binds” in each case. In addition, the Kd with human Fcγ RIIIa/CD16a [9] is at least 31 nM; with human Fcγ RIIIb/hCD16b [10] it was 378 nM; with human Fcγ RIIIa/CD16a [11], at most 164 nM.
